In patent publication US20030144339A1, “Indole derivatives as mcp-1 receptor antagonists” (priority 2000, published 2003):
pEC50, pIC50, pKd: −log10 of the molar value.

Legend:
MCP-1 receptor B (CCR2B) = target: T1, MCP-1 receptor B (CCR2B) (Homo sapiens, UniProt P41597); experiment: hMCP-1 receptor binding assay (125I-MCP-1, CHO-CCR2B cell membranes)
T1 construct: expressed in transfected cells; membrane fragments
T1 sequence (P41597 1-360 isoform P41597-2): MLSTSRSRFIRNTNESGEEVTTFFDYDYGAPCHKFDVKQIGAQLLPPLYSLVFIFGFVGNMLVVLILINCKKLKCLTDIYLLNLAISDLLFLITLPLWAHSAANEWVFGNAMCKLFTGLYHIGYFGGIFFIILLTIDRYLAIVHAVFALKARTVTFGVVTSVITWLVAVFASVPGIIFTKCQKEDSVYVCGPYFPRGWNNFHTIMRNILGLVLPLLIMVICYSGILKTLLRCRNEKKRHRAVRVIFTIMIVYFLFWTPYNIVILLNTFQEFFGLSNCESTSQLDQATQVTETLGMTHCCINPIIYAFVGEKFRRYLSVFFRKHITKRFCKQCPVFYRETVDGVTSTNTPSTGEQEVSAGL
Excerpt: The MCP-1 receptor B (CCR2B) cDNA was cloned by PCR from ThP-1 cell RNA using suitable oligonucleotide primers based on the published MCP-1 receptor sequences (Charo et al., 1994, Proc. Natl. Acad. Sci. USA, 91, 2752). The resulting PCR products were cloned into vector PCR-II™ (In Vitrogen, San Diego, Calif.). Error free CCR2B cDNA was subcloned as a Hind III-Not I fragment into the eukaryotic expression vector pCDNA3 (In Vitrogen) to generate pCDNA3/CC-CKR2A and pCDNA3/CCR2B respectively.
Linearised pCDNA3/CCR2B DNA was transfected into CHO-K1 cells by calcium phosphate precipitation (Wigler et al., 1979, Cell, 16, 777). Transfected cells were selected by the addition of Geneticin Sulphate (G418, Gibeo BRL) at 1 mg/ml, 24 hours after the cells had been transfected. Preparation of RNA and Northern blotting were carried out as described previously (Needham et al., 1995, Prot. Express. Purific., 6, 134). CHO-K1 clone 7 (CHO-CCR2B) was identified as the highest MCP-1 receptor B expresser.
CHO-CCR2B cells were grown in DMEM supplemented with 10% foetal calf serum, 2 mM glutamine, 1× Non-Essential Amino Acids, 1× Hypoxantiine and Thymidine Supplement and Penicillin-Streptomycin (at 50 μg streptomycin/ml, Gibco BRL). Membrane fragments were prepared using cell lysis/differential centrifuigation methods as described previously (Siciliano et al., 1990, J. Biol. Chem., 265, 19658). […]

THP-1 cells [1] = experiment: MCP-1 mediated calcium flux in THP-1 cells; type: cell-based, human; settings: FURA-2, stimulation with hMCP-1, read-out: EC50 of rise in [Ca2+]i
Description: The human monocytic cell line TIP-1 was grown in a synthetic cell culture medium RPM 1640 supplemented with 10% foetal calf serum, 6 mM glutamine and Penicillin-Streptomycin (at 50 μg streptomycin/ml, Gibeo BRL). THP-1 cells were washed in HBSS (lacking Ca^2+ and Mg^2+)+1 mg/ml BSA and resuspended in the same buffer at a density of 3×10^6 cells/ml. The cells were then loaded with […] FURA-2/AM for 30 mrin at 37° C., washed twice in HBSS, and resuspended at 1×10^6 cells/ml. TrP-1 cell suspension (0.9 ml) was added to a 5 ml disposable cuvette containing a magnetic stirrer bar and 2.1 ml of prewarmed (37° C.) HBSS containing 1 mg/ml BSA, 1 mM MgCl2 and 2 mM CaCl2. The cuvette was placed in a fluorescence spectrophotometer (Perkin Elner, Norwalk, Conn.) and preincubated for 4 min at 37° C. with stirring. Fluorescence was recorded over 70 sec and cells were stimulated by addition of hMCP-1 to the cuvette after 10 sec. [Ca^2+]i was measured by excitation at 340 nm and 380 nm alternately and subsequent measurement of the intensity of the fluorescence emission at 510 nm.
where the Kd for FURA-2 Ca^2+ complex at 37° C. was taken to be 224 nm. […]

THP-1 cells [2] = experiment: hMCP-1 mediated chemotaxis of THP-1 cells; type: cell-based, human; settings: 2 h at 37° C.
Description: In vitro chemotaxis assays were performed using the human monocytic cell line THP-1. Cell migration through polycarbonate membranes was measured by enumerating those passing through either directly by Coulter counting or indirectly by use of a colourimetric viability assay measuring the cleavage of a tetrazolium salt by the mitochondrial respiratory chain (Scudiero D. A. et al. 1988, Cancer Res., 48, 4827-4833).
Chemoattractants were introduced into a 96-well microtitre plate which forms the lower well of a chemotaxis chamber fitted with a PVP-free 5 μm poresize polycarbonate adhesive framed filter membrane (NeuroProbe MB series, Cabin John, Md. 20818, USA) according to the manufacturer's instructions. […] The plate was incubated at 37° C. for 3 h and the absorbance of the soluble formazan product was read on a microtitre plate reader at 450 nm. The data was input into a spreadsheet, corrected for any random migration in the absence of chemoattractant and the average absorbance values, standard error of the mean, and significance tests were calculated. bMCP-1 induced concentration dependent cell migration with a characteristic biphasic response, maximal 0.5-1.0 nm.

For “MCP-1: Human Monocyte Chemoattractant Protein-1, a C-C chemokine; natural ligand of the CCR2 receptor, used as assay ligand/stimulus”, the pIC50 (MCP-1 receptor B (CCR2B); cold competition with 100 pM 125I-labeled MCP-1, room temperature, read-out: IC50 of MCP-1 binding to CHO-CCR2B membrane fragments) was 9.96, the pKd (MCP-1 receptor B (CCR2B); equilibrium binding, room temperature, read-out: Kd of MCP-1 binding to CHO-CCR2B membrane fragments) was 9.92 and the pEC50 (THP-1 cells [1]) was about 8.70. The “concentration giving maximal cell migration (biphasic response)” value (THP-1 cells [2]) was 0.5-1.0 nm.
